# From patent US20250197503A1, “ANTI-HUMAN PD-Ll AND TLR7 DOUBLE-TARGETING NANOBODY CONJUGATE DRUG AND USE THEREOF IN RESISTING TUMOR” (SHANGHAI INSTITUTE OF MATERIA MEDICA , CHINESE ACADEMY OF …, priority 2022, published 2025)
# Tests used:
# [1] = target: T1, human PD-1/PD-L1 (Homo sapiens, UniProt Q9NZQ7); assay: Blocking of human PD-1/PD-L1 binding on HEK293T/hPD-L1 cells, single concentration, flow cytometry; settings: nanobody 10 μg/ml, human PD-1-his 1 μg/mL, FIG. 2
# T1 construct: expressed in transfected cells; host or cells: HEK293T
# T1 sequence (Q9NZQ7 19-290): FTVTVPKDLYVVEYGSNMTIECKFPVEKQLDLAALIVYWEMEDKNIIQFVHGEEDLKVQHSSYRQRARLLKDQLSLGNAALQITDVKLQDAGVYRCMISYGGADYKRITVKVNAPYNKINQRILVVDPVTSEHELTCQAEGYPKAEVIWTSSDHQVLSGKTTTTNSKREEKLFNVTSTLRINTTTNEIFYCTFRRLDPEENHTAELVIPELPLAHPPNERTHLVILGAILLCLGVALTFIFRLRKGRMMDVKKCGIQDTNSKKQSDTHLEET
# Method: The stably transfected cell line HEK293T/hPD-L1 was digested and centrifuged to remove the supernatant. The cells were washed once with PBS and the cell density was adjusted to 2.5×10^6 cells/mL. 100 μL of cell suspension was added to each cell sample, i.e., 2.5×10^5 cells/sample. The human PD-1-his protein (at a concentration of 1 μg/mL) and candidate anti-human PD-L1 nanobodies (at a concentration of 10 μg/ml) were added to the samples respectively. The abtained samples were incubated in a refrigerator at 4° C. for 20 min and centrifuged to remove the supernatant. The obtained samples were washed once with PBS. The diluted antibody anti-his-APC was used as the secondary antibody to resuspend the above cells. The cells were incubated in a refrigerator at 4° C. for 20 min and centrifuged to remove the supernatant. The cells were washed twice with PBS, transferred to a flow tube; and detected by flow cytometry.
# [2] = target: T1, human PD-1/PD-L1; assay: IC50 of blocking human PD-1/PD-L1 binding on HEK293T/hPD-L1 cells, flow cytometry; settings: FIG. 3; for IC50 activity in blocking human PD-1/PD-L1 binding, compared with KN035: human PD-1-his 1 μg/mL
# Method: The cell samples were prepared by digesting the stably transfected cell line HEK293T/hPD-L1. Different concentrations of nanobodies h_Nb1 or h_Nb2 or positive control antibody KN035 (sequence from the IMGT database) and human PD-1-his protein (concentration of 1 μg/mL) were added to the samples. After incubation and centrifugation, anti-his-APC was used as the secondary antibody for incubation and staining; and then the flow cytometer was used for detection to obtain the IC50 value of the candidate nanobody in blocking the binding of human PD-1/PD-L1, as shown in FIG. 3.
# [3] = target: T2, PD-L1 (Homo sapiens, UniProt Q9NZQ7); assay: Binding of candidate nanobodies to human PD-L1 on HEK293T/hPD-L1 cells, flow cytometry; design: expressed in transfected cells; host or cells: HEK293T; settings: nanobody 10 μg/ml, FIG. 1
# T2 sequence (Q9NZQ7 19-290): as above
# Method: The stably transfected cell line HEK293T/hPD-L1 was digested and centrifuged, and the supernatant was removed. The cells were washed once with PBS and the cell density was adjusted to 2.5×10^6 cells/mL. 100 μL of cell suspension was added to each cell sample, i.e., 2.5×10^5 cells/sample. Different anti-human PD-L1 candidate nanobodies (at a concentration of 10 μg/ml) were added into the samples. The samples were incubated in a 4° C. refrigerator for 20 min and then centrifuged to remove the supernatant, and washed once with PBS. The diluted antibody anti-human IgG Fc (FITC) was used as a secondary antibody to resuspend the above cells. The abtained samples were incubated in a 4° C. refrigerator for 20 min and centrifuged to remove the supernatant. The cells were washed twice with PBS, transferred to a flow tube; and detected on a flow cytometer to obtain the binding activity of the candidate nanobody with human PD-L1, as shown in FIG. 1.
# [4] = tested on: CT26/hPD-L1 tumor; assay: In vivo anti-tumor activity in CT26/hPD-L1 tumor model; design: species or system BALB/c mice with dual humanization of PD-1/PD-L1; settings: 10 mg/kg intraperitoneal, 6 administrations D0-D16, tumors dissected on Day 17
# Method: To further evaluate the in vivo anti-tumor activity of anti-human PD-L1 and TLR7 dual-targeting nanobody conjugates, the CT26/hPD-L1 tumor model established by using BALB/c mice with dual humanization of PD-1/PD-L1 targets was used. When the average tumor volume reached 80-100 mm^3, the mice were randomly divided into 6 groups according to the tumor volume, with 6 mice in each group; the day of grouping was defined as DO, and the drugs were administered on DO, D3, D7, D10, D13, and D16, for a total of 6 times, with a dose of 10 mg/kg by intraperitoneal administration. The tumor size was measured 2-3 times a week, and the tumor growth curve was plotted.
# [5] = target: T2, PD-L1; assay: Affinity of affinity-matured nanobodies to PD-L1 compared with the original antibodies; assay type: binding; settings: relative to original antibody (h_Nb1 VHH or h_Nb2 VHH)
# Excerpt: The full-length amino acid sequences of preferred nanobodies that specifically bind to human PD-L1 in the above examples (SEQ ID No. 1 and SEQ ID No. 5) were annotated with the CCG method for the antibody CDR and FR regions. Suitable FR and CDR region templates were selected by antibody homology modeling to construct and select the optimal nanobody three-dimensional protein structure. The crystal structure of human PD-L1 protein was obtained from the PDB protein database. A preferred candidate library of PD-L1 nanobody-PD-L1 protein complex structures was obtained by protein complex homology modeling and protein-protein molecular docking methods. Based on the PD-1/PD-L1 in vitro competitive binding characteristics of the preferred antibodies, a suitable docking angle was selected to determine the optimal docking conformation. The key interaction sites of the selected nanobody-PD-L1 protein complex structure were analyzed, with attention paid to Van Der Waals forces, hydrogen bonds, ionic bonds, hydrophobic interactions, etc. The pairs of action sites with low affinity energy values between the nanobodies and the action sites on PD-L1 were focused on as affinity maturation point mutation objects. […] Finally, the affinity maturation scheme of the CDR regions of the preferred antibodies was determined, and the sequences of the antibodies after affinity maturation were SEQ ID NO. […]
Molecule,binding activity to human PD-L1 [3],further results
"h_Nb1: anti-human PD-L1 nanobody, VHH SEQ ID NO: 1 (protein, h_Nb1 VHH) VHH: DVQLQESGGGLVQPGGSLRLSCAASGFTFSSYAMSWVRQAPGKGLEWVSDINSGGDNTDYADSVKGRFTISRDNAKNTLYLQMNSLKPEDTAVYYCARGPKLCFSSWGQGTQVTVSS",good binding activity,"activity in blocking human PD-1/PD-L1 binding [1]: effectively block; IC50 activity in blocking human PD-1/PD-L1 binding, compared with KN035 [2]: comparable to those of the positive control antibody KN035; tumor inhibition rate [4]: 81.17%"
"h_Nb4: anti-human PD-L1 nanobody, VHH SEQ ID NO: 9 (protein, h_Nb4 VHH) VHH: DVQLQESGGGLVQAGGSLRLSCAAPSRMFSGYTMGWYRQAPGKQRELVAQIANGGFTDYIDSVKGRFSISRDTVLNMMYLQMNSLKPEDTAVYYCNLVLVNGIPTRNWGQGTQVTVSS",good binding activity,
"h_Nb2: anti-human PD-L1 nanobody, VHH SEQ ID NO: 5 (protein, h_Nb2 VHH) VHH: DVQLQESGGGLVQPGGSLRLSCAASGFTFGDRWMYWLRQAPGKGLEWVSSINPAGRSTYYADSVKGRFTISRDNAKNTLYLQMNSLKSEDTAVYYCTKDPGGYQKGQGTQVTVSS",good binding activity,"activity in blocking human PD-1/PD-L1 binding [1]: effectively block; in vitro activity compared with KN035 ([2]; PD-1/PD-L1 blocking): superior to that of KNO35; IC50 activity in blocking human PD-1/PD-L1 binding, compared with KN035 [2]: comparable to those of the positive control antibody KN035; tumor inhibition rate [4]: 85.14%"
"h_Nb2_G101Y: affinity-matured VHH of h_Nb2, SEQ ID NO: 92 (protein, h_Nb2_G101Y VHH) VHH: DVQLQESGGGLVQPGGSLRLSCAASGFTFGDRWMYWLRQAPGKGLEWVSSINPAGRSTYYADSVKGRFTISRDNAKNTLYLQMNSLKSEDTAVYYCTKDPGYYQKGQGTQVTVSS",,Improved value of relative affinity [5]: 8.4837
"h_Nb5: anti-human PD-L1 nanobody, VHH SEQ ID NO: 13 (protein, h_Nb5 VHH) VHH: DVQLQESGGGAVQSGESLRLSCAASGRDLMFYDVAWFRQAPGKEREGVSYIRSSGTLTKYADSVKGRFTISRDNDKNTVSLQMNSLNPEDTAKYYCAARLQSATSHSDLREDEFNSWGQGTQVTVSS",good binding activity,
"h_Nb12: anti-human PD-L1 nanobody, VHH SEQ ID NO: 24 (protein, h_Nb12 VHH) VHH: DVQLQESGGGLVQAGGSLRLSCAASGRTFSSRAMGWFRQAPGKEREFVAAISGSGRNTYYADSVKGRFTISRDNAKNSVNLQMNSLKPEDTAVYYCNAAGGGITIATMTQRTQYDYWGQGTQVTVSS",good binding activity,
"h_Nb9: anti-human PD-L1 nanobody, VHH SEQ ID NO: 20 (protein, h_Nb9 VHH) VHH: DVQLQESGGGLVQPGGSLRLSCASSGSIFGLGVKGWYRQPPGNQREMVAQIISGGRISYADSVKGRFTISRDNAKNTVYLQMNSLKPEDTAVYYCNAWGPGQRNYWGRGTQVTVSS",good binding activity,
"KN035: positive control antibody (sequence from the IMGT database) (antibody, chains of the INN, looked up, V domains shown) VH: QVQLVESGGGLVQPGGSLRLSCAASGKMSSRRCMAWFRQAPGKERERVAKLLTTSGSTYLADSVKGRFTISRDNSKNTVYLQMNSLRAEDTAVYYCAADSFEDPTCTLVTSSGAFQYWGQGTLVTVSS",,tumor inhibition rate [4]: 65.83%
"h_Nb6: anti-human PD-L1 nanobody, VHH SEQ ID NO: 17 (protein, h_Nb6 VHH) VHH: DVQLQESGGGLAQPGGSLRLSCAASGFTFSSYAMSWARQAPGKGLEWVAGIYRGGSDTYYADSVKGRFTISRDNTKNTLYLQMNSLKPEDTALYYCIQGWGLGYANYDYWGQGTQVTVSS",good binding activity,
"h_Nb13: anti-human PD-L1 nanobody, VHH SEQ ID NO: 28 (protein, h_Nb13 VHH) VHH: DVQLQESGGGLVQPGGSLRLSCAASGSIFSINAMGWYRQAPGKSRELVAAITSGGSTNYADSVKGRFTISRDTAKNTVYLLMNSLEPEDTAVYYCNVERRRPPHYLSEYDFDWGQGTQVTVSS",good binding activity,
"h_Nb26: anti-human PD-L1 nanobody, VHH SEQ ID NO: 36 (protein, h_Nb26 VHH) VHH: DVQLQESGGGLVQPGGSLRLSCAAPGSIFRINAMGWYRQAPGKQRELVAAITSGGSTNYADSVQGRFTISRDNAKNTVYLQMNSLKPEDTAVYYCNVERRRPPHYYSDYDFDWGQGTQVTVSS",good binding activity,
